Laboratory results reported in CN105524171A (UNIV PLA 3RD MILITARY MEDICAL, dated 2016).

Legend:
[1] = molecular target: T1, PSMA胞外区蛋白 (重组表达的前列腺特异性膜抗原膜外区) (UniProt Q04609 44-750); experiment: indirect phage ELISA, PSMA extracellular domain coated at 5 μg/mL, HRP-anti-M13 detection
T1 construct: extracellular domain; also called PSMA蛋白; PSMA抗原; not shown: His tag from vector pRAG2a (HisTrap purification, detected with His antibody)

[2] = molecular target: T2, 前列腺特异性膜抗原 (PSMA) on LNCaP cells (UniProt Q04609 1-750, limits assumed); experiment: cell ELISA (HRP-anti-M13, OD450) and immunofluorescence on fixed LNCaP cells (PSMA+) against MKN45 cells (PSMA-)
T2 construct: whole, on cells; Cells were fixed with 4% paraformaldehyde before the assay; also called prostate specific membrane antigen
T2 sequence (Q04609 whole entry): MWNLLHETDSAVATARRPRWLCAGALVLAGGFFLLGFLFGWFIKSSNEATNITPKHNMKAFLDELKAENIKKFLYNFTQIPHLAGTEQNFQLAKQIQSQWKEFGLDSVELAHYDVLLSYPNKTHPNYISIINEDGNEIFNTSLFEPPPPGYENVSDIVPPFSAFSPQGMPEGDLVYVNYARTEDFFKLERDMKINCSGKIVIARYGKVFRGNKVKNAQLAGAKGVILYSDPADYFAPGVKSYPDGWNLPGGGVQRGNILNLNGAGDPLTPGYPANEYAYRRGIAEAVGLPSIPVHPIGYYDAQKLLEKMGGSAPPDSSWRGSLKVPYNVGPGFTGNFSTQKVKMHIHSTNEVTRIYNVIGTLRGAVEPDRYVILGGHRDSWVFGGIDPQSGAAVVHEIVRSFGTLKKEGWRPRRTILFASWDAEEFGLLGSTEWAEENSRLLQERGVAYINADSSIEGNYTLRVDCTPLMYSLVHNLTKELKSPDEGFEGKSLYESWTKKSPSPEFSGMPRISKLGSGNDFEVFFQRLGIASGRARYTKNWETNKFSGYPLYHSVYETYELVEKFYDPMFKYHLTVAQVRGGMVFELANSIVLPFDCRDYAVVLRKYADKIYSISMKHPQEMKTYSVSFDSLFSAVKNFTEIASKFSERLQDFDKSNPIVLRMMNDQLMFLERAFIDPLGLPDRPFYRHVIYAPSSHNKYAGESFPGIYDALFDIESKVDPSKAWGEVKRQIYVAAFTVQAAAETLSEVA

T1 sequence (Q04609 44-750): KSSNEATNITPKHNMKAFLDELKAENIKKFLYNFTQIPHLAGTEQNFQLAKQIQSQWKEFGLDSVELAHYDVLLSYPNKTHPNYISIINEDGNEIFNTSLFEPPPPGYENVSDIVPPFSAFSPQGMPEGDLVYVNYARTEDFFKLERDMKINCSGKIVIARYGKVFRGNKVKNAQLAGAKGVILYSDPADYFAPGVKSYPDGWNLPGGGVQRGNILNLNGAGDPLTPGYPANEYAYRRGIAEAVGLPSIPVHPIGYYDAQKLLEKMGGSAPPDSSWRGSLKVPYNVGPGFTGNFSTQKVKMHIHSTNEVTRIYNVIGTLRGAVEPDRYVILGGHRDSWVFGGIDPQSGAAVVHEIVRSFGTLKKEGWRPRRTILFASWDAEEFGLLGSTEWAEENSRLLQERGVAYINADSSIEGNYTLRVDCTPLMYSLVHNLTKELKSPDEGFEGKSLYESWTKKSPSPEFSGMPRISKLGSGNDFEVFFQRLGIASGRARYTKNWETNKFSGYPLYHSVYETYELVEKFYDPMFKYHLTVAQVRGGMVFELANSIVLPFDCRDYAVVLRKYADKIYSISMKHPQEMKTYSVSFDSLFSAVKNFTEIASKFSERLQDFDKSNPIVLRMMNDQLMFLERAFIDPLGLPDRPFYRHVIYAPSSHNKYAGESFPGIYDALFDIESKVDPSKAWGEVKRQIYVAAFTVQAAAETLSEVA

- binding result [1]: binds
- binding result [2]: binds
B1: 抗前列腺特异性膜抗原单域重链抗体噬菌体阳性克隆 (VHH, not shown: large carriers)
VHH: QLQLVESGGGLVQAGGSLRLSCVVSGRPFSRYTMGWFRQAPGKERELVATIWRRGNTYYANYADAVTGRFTISRDNAKNTAYLQMNSLELEDTAIYYCAAGRTSWGQNPSEYGYWGQGTQVTVSS
notes: also called 针对前列腺特异性膜抗原的单域重链抗体阳性克隆; 展示本发明所述纳米抗体的噬菌体克隆
